Measurements published in PMC8464079.
Numbering of substitutions follows the chain as printed.

Assays:
Assay in all cases: fluorescence polarization
MUT-8G = molecular target: T1, MUT-8G (Caenorhabditis elegans, UniProt Q09487 172-535, N472S;Y473N;Q476E)
T1 sequence: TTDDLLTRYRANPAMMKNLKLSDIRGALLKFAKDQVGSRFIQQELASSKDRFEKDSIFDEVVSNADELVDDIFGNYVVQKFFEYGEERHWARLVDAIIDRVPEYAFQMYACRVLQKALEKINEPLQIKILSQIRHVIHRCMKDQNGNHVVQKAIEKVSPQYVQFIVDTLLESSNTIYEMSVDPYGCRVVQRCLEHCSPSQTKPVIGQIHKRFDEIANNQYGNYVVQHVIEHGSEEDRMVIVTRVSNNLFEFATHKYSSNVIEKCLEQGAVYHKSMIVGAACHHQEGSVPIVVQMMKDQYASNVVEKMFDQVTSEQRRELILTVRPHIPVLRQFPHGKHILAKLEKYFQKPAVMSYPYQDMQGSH

MUT-#11 (K513A) = molecular target: T2, MUT-#11 (K513A) (Caenorhabditis elegans, UniProt Q09487 172-535, K513A)
T2 sequence: T1 sequence with S301N, N302Y, E305Q, K342A

MUT-4A = molecular target: T3, MUT-4A (Caenorhabditis elegans, UniProt Q09487 172-535, N318C;H319R)
T3 sequence: T1 sequence with N147C, H148R, S301N, N302Y, E305Q

MUT-#14 (Q476A/K513A) = molecular target: T4, MUT-#14 (Q476A/K513A) (Caenorhabditis elegans, UniProt Q09487 172-535, Q476A;K513A)
T4 sequence: T1 sequence with S301N, N302Y, E305A, K342A

MUT-#10 (Q476E) = molecular target: T5, MUT-#10 (Q476E) (Caenorhabditis elegans, UniProt Q09487 172-535, Q476E)
T5 sequence: T1 sequence with S301N, N302Y

MUT-4N = molecular target: T6, MUT-4N (Caenorhabditis elegans, UniProt Q09487 172-535, N318A;H319A;Q322A)
T6 sequence: T1 sequence with N147A, H148A, Q151A, S301N, N302Y, E305Q

B1: PBE-5A FAM (ssRNA)
RNA: UGUAAAUA
MUT-8G
  binding result: no binding
MUT-#11 (K513A)
  Kd: 133 ± 29.8 nM
MUT-4A
  Kd: 0.44 ± 0.39 nM
MUT-#14 (Q476A/K513A)
  Kd: 210 ± 27.4 nM
MUT-#10 (Q476E)
  Kd: 519 ± 63.1 nM
MUT-4N
  Kd: 161 ± 22 nM
